Test results taken from patent publication CN106632674A.

How the values were obtained:
[1] = molecular target: PD-1ECD-TEV-mFc融合蛋白 (human); test: indirect ELISA, coated PD-1 Fc fusion (mFc form assumed for 5C4), run together with 6F5 and 6F5(Re)
[2] = molecular target: PD-1ECD-TEV-mFc融合蛋白 (human); test: indirect ELISA, coated PD-1 Fc fusion (mFc form assumed for 5C4), run together with 6F5H1L1 and 6F5H2L2
[3] = molecular target: PD-1ECD-TEV-hFc融合蛋白 (human); test: competition ELISA, antibody titrated from 1.5 ug/ml against PDL-1 Fc fusion (2 ug/ml; PDL-1-mFc assumed) on coated PD-1 Fc fusion (PD-1-hFc assumed)
Sequence of PD-1ECD-TEV-hFc融合蛋白 (human) (main, as listed by the source, form in doubt): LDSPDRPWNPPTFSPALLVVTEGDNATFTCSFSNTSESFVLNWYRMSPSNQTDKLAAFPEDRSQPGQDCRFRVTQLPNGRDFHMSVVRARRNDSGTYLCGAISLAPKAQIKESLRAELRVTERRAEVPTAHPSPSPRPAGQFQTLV

Sequence of PD-1ECD-TEV-mFc融合蛋白 (human) (main, as listed by the source, form in doubt): as above

EC50 [1]: 0.199 nM | EC50 [2]: 0.233 nM | EC50 [3]: 1.46 nM
Substance: 阳性对照抗体5C4 (antibody)
